In patent publication US20190367620A1 (Merck KGaA, published 2019):

Key:
FGFR1 on NCI-H520 cells = FGFR1 on NCI-H520 cells (human, UniProt P11362 22-822); experiment: cell-based or functional assay
[1] = molecular target: T1, FGFR1 D2 point mutant G92A (human, UniProt P11362 22-254); experiment: SPR as in Example 1.8
T1 chain: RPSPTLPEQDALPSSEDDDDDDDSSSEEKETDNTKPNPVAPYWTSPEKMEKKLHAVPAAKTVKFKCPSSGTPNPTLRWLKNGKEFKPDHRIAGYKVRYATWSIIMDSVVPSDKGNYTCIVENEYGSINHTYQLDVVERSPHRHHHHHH
How it was run: (§1)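 Anti-FGFR1 mAb captured via immobilised anti-human Fc to ~200 RU; 2-fold dilutions of His-tagged FGFR1 (wild-type or HEK-expressed point mutants, Ala→Gly for native Ala) injected at 25° C in HBS-EP+. kon/koff from 1:1 Langmuir fit; KD = koff/kon.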

[2] = molecular target: T2, FGFR1 D2 point mutant K51A (human, UniProt P11362 22-254); experiment: SPR as in Example 1.8
T2 chain: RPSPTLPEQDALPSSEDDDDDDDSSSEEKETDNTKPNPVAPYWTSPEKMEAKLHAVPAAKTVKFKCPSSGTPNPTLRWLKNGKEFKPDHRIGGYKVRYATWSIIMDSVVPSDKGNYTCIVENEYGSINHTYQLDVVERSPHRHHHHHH
How it was run: as §1

[3] = molecular target: T3, FGFR1 D2 point mutant E47A (human, UniProt P11362 22-254); experiment: SPR as in Example 1.8
T3 chain: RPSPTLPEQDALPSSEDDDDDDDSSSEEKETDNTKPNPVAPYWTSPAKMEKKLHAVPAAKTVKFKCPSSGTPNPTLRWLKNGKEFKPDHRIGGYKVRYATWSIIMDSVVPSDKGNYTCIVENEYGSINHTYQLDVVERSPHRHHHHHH
How it was run: as §1

[4] = molecular target: T4, FGFR1 D2 point mutant K52A (human, UniProt P11362 22-254); experiment: SPR; free energy change relative to wild-type D2
T4 chain: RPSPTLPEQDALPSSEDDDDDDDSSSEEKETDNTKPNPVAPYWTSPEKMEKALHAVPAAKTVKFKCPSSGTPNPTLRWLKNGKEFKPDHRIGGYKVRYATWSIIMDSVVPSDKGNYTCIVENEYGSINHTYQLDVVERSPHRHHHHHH
Protocol: (§2) Binding affinities of anti-FGFR1 antibodies to FGFR1 were measured by Surface Plasmon Resonance (SPR) using a GE Healthcare BIAcore 4000 instrument as follows. Goat anti-human Fc antibody (Jackson ImmunoResearch Laboratories #109-005-098) was first immobilized on BIAcore carboxymethylated dextran CM5 chip using direct coupling to free amino groups following the procedure described by the manufacturer. Antibodies were then captured on the CM5 biosensor chip to achieve approximately 200 response units (RU). Binding measurements were performed using the running HBS-EP+ buffer. A 2-fold dilution series of His-tagged FGFR1 proteins were injected at a flow rate of 30 μl/min at 25° C. Association rates (kₒₙ, per mol/s) and dissociation rates (koff, per s) were calculated using a simple 1:1 Langmuir binding model (Biacore 4000 Evaluation Software). The equilibrium dissociation constant (KD, mol) was calculated as the ratio of koff/kₒₙ.
(§3) To obtain a finer, residue-level mapping of the epitope and to complement the HD exchange data, molecular modelling and manual inspection of the crystal structure of FGFR1 [(Beenken et al. 2012); PDB record 3OJV] was used to select solvent exposed residues within and around the epitope identified by HD exchange. The selected residues were mutated either to alanine (large to small) or to glycine if the selected residue was alanine. In total 35 point mutants were designed, expressed and purified in HEK cells, and tested for binding to mAb #A08 using surface plasmon resonance as described in Example 1.8. The affinity of the antibody for wild-type and each mutant was determined and used to calculate the contribution of each epitope residue to the binding energy.
(§4) Variant were compared to wild-type D2. The change in the Gibbs free energy of binding of mutant relative to the wild-type D2 construct (ΔΔGₘᵤₜ) was derived from the ratio of the wild-type and mutant KD.

[5] = molecular target: T2, FGFR1 D2 point mutant K51A; experiment: SPR; free energy change relative to wild-type D2
Protocol: as §2, §3, §4

[6] = molecular target: T5, FGFR1 D2 point mutant S45A (human, UniProt P11362 22-254); experiment: SPR; free energy change relative to wild-type D2
T5 chain: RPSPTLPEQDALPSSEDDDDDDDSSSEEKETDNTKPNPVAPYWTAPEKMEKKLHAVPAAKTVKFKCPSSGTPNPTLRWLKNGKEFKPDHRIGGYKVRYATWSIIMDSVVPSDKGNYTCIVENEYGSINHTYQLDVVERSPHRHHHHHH
Protocol: as §2, §3, §4

[7] = molecular target: T6, FGFR1 D2 point mutant L53A (human, UniProt P11362 22-254); experiment: SPR; free energy change relative to wild-type D2
T6 chain: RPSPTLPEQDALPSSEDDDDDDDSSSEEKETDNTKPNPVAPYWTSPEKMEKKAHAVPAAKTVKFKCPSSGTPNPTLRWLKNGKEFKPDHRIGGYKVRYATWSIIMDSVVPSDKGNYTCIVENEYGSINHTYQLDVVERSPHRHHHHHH
Protocol: as §2, §3, §4

[8] = molecular target: T7, FGFR1 D2 point mutant I91A (human, UniProt P11362 22-254); experiment: SPR; free energy change relative to wild-type D2
T7 chain: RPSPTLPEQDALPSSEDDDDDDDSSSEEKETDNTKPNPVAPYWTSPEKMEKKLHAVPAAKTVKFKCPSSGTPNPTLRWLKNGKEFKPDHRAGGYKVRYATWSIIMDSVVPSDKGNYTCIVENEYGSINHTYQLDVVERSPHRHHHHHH
Protocol: as §2, §3, §4

[9] = molecular target: T8, FGFR1 D2 point mutant R97A (human, UniProt P11362 22-254); experiment: SPR; free energy change relative to wild-type D2
T8 chain: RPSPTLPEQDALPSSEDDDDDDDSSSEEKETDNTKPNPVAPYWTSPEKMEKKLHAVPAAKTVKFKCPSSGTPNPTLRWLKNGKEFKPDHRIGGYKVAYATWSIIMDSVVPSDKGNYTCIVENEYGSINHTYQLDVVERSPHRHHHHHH
Protocol: as §2, §3, §4

Human FGFR1 D2-His6 = molecular target: T9, Human FGFR1 D2-His6 (human, UniProt P11362 22-254); experiment: ELISA, antibody titrated on FGFR1 Ig-D2, O.D. 450 nm [panel FGFR1 Ig-D2]
T9 construct: also called D2 domain; F3FR1c-D2
T9 sequence: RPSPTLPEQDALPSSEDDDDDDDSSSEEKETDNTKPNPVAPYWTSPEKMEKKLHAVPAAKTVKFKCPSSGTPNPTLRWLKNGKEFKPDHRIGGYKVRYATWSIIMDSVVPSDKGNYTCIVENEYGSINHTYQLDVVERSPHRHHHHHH

Chain of FGFR1 on NCI-H520 cells (P11362 22-822): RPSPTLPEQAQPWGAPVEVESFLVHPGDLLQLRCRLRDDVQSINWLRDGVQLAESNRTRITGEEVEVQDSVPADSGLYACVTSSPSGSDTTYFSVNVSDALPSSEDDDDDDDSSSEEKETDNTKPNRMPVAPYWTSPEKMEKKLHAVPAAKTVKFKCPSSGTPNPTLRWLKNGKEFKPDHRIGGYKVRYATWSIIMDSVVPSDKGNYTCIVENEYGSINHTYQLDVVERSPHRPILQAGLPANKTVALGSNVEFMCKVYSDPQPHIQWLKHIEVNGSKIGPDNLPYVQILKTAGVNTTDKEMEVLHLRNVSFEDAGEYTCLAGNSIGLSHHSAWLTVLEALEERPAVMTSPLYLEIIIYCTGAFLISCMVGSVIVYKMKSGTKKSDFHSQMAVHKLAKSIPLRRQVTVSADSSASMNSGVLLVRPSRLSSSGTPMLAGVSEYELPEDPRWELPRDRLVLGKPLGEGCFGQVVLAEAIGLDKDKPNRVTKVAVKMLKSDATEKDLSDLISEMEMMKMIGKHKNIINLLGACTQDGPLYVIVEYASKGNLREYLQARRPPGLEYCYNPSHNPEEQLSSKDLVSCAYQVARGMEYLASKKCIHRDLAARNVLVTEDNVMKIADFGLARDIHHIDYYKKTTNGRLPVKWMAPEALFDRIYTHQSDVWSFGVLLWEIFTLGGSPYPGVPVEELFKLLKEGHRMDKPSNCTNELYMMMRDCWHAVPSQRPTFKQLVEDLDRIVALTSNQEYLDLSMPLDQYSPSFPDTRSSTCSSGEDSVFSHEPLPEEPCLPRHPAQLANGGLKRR

IC50, inhibition of P-FGFR1 in NCI-H520 cells, FGF1 stimulated (FGFR1 on NCI-H520 cells): 4 nM
IC50, inhibition of P-FGFR1 in NCI-H520 cells, FGF2 stimulated (FGFR1 on NCI-H520 cells): 0.2 nM
IC50, inhibition of P-FGFR1 in NCI-H520 cells, non-stimulated (hashtag: estimated IC50, poor fit) (FGFR1 on NCI-H520 cells): ~1000 nM
Kd [1]: 0.28 nM
Kd [2]: 0.31 nM
Kd [3]: 0.26 nM
ΔΔGmut [4]: 0.11 kcal/mol
ΔΔGmut [5]: 0.27 kcal/mol
ΔΔGmut [6]: 0.05 kcal/mol
ΔΔGmut [7]: 0.25 kcal/mol
ΔΔGmut [8]: 0 kcal/mol
ΔΔGmut [9]: 1.83 kcal/mol
EC50 (read off the curve) (Human FGFR1 D2-His6): ~0.04 nM
B1: mAb #A08 (antibody, V domains shown)
VH: EVQLQESGPGLVKPSGTLSLTCAVSGGSISSNNWWSWVRQPPGKGLEWIGEIYHSGSTSYNPSLKSRVTISVDKSKNQFSLKLNSVTAADTAVYYCARGTDWFDPWGQGTLVTVSS
VL: QAVLTQPPSVSVAPGQTARITCGGNNIGSESVHWYQQKPGQAPVLVVYDDSDRPSGIPERFSGSNSGNTATLTISRVEAGDEADYYCQVWDSTSDHRVFGGGTKLTVL
notes: Only variable domains are tied to the name mAb #A08 (hit); also called #A08 hit; mAb #08
